What was measured:
[1] = molecular target: biotin-labeled human TIGIT protein (human) (UniProt Q495A1); experiment: ELISA blocking assay: CD155-hFc coated, biotin-labeled human TIGIT, antibody titrated
[2] = molecular target: human TIGIT-His protein (human) (UniProt Q495A1); experiment: ELISA, plate coated with human TIGIT-His, anti-human IgG-HRP, OD 450nm; unit taken from the axis Log[Conc.]/ng/ml
[3] = molecular target: human TIGIT expressed on cells (human) (UniProt Q495A1); experiment: flow cytometry on human TIGIT overexpressing cells, Alexa Fluor 647 anti-human IgG; fitted top of a flat control curve, unit from the y axis
Chain of human TIGIT expressed on cells (human) (Q495A1 22-244): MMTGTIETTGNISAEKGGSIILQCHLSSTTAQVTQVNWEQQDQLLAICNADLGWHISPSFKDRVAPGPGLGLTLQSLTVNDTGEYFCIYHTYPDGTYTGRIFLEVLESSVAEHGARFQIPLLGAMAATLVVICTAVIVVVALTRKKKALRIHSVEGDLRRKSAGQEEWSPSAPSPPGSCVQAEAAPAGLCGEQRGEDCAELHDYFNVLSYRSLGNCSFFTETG

Chain of human TIGIT-His protein (human) (Q495A1 22-141 limits assumed): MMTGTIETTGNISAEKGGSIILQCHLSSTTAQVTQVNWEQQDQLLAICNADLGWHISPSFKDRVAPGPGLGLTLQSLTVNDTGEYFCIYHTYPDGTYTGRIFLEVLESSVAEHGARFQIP
Chain of biotin-labeled human TIGIT protein (human) (Q495A1 22-141 limits assumed): as above

IC50 [1] [µg/mL] | EC50 [2] [µg/mL] | Top [3] [MFI] | Substance
0.531 | 0.00659 |  | Tiragolumab (RG6058, Roche) (antibody)
 |  | 110 | total human IgG (antibody)

— patent US11028172
